The values that follow come from PMC9040744 (mBio, 2022).

This assay has as its target JUNV GP1 (Junín virus GP1 glycoprotein, residues 87 to 232) (Junín virus (JUNV), strain XJ13 …, UniProt C1K9J9). Kind of assay: crystal structure. As to conditions: both partners purified.

B1: Fab fragment of NAb JUN1 (Fab, V domains shown)
VH: LVQSVETGGGLVRPGNSLKLSCVTSGFTFSNYQMHWLRQPPGKRLEWIAVITVKSDNYGANYVESVKGRFAISRDDSKSSVYLEMNRLREEDTATYFCSRSGIYDGYYAYAMDYWGQGTSVTVSS
VL: SVVMTQSQKFMSTSVGDRVSITCKASQIVGTSVAWYQQKAGQSPKLLIYWASTRHTGVPDRFTAGGSGTDFTLTITNVQSEDLADYFCQQYATYPLTFGSGTKLELK
notes: also called Fab JUN1; JUN1 Fab; source: HEK293T, heavy and light chains coexpressed, purified
For the molecule B1, the binding result is recorded as “binds”.
